Measurements taken from patent publication US20110300156A1 (Genmab, published 2011).

B1: anti-TF HuMab 098 (antibody, V domains shown)
VH: QVQLVQSGAEVRKPGSSVKVSCKASGGSFNNYPIFWVRQAPGQGFEWMGRIIPILGITAYAQKFQGRVTITADKSTSTAYMELNSLRSEDTAVYYCAGGDDLDAFDIWGQGTMVSVSS
VL: DIQMTQSPSSLSASVGDRVTITCRASQGISSWLAWYQQKPEKAPKSLIYAASSLQSGVPSRFSGSGSGTDFTLTISSLQPEDFATYYCQQYNSYPYTFGQGTKLEIK
notes: Human monoclonal antibody from HuMab mice; also called HuMab-TF-098; HuMab-TF-98
B2: anti-TF HuMab 003 (antibody, V domains shown)
VH: QVQLVQSGAEVKKPGSSVKVSCKAPRGTFSYYTISWVRQAPGQGLEWMGRIIPILGVANYAQKFQGRVTITADKSTSTAYMELSSLRSEDTAVYYCAREGDRRYFDYWGQGTLVTVSS
VL: AIQLTQSPSSLSASVGDRVTITCRASQDISSALAWYQQKPGKAPKLLIYDASILESGVPSRFSGSGSGTDFTLTISSLQPEDFATYYCQQFNSYPLTFGGGTKVEIK
notes: Human monoclonal antibody from HuMab mice; also called HuMab-TF-003
B3: anti-TF HuMab 101 (antibody, V domains shown)
VH: EVQLLESGGGLVQPGGSLRLSCAASGFTFSNYAMSWVRQAPAKGLDWVSGISGSGVTTYYADSVKGRFTISRDNSKDTLYLQMNSLRAEDTAVYFCAKTPWGYYFDYWGQGILVAVSS
VL: DIQMTQSPSSLSASVGDRVTITCRASQGISSWLAWYQQKPEKAPKSLIYAASSLQSGVPSRFSGSGSGTDFTLTISSLQPEDFATYYCQQYNSYPLYTFGQGTKLEIK
notes: Human monoclonal antibody from HuMab mice

Experiments:
[1] = biological target: T1, human tissue factor (TF), membrane-bound on cells (human, UniProt P13726 33-295); assay: FACS, Bx-PC3 cells, 30 µg/mL
T1 construct: whole, on cells; also called cellular TF
Description: (§1) Cells were resuspended in PBS (2×10⁶ cells/ml), put in 96-well V-bottom plates (50 μl/well). 50 μl of serially diluted HuMab in FACS buffer (PBS supplemented with 0.1% BSA and 0.02% Na-azide) was added to the cells and incubated for 30 minutes on ice. After washing three times with FACS buffer, 50 μl of phycoerythrin (PE)-conjugated goat anti-human IgGFc (Jackson ImmunoResearch), diluted 1:100 in FACS buffer, was added. After 30 minutes on ice (in the dark), cells were washed three times, and specific binding of the HuMabs was detected by flow cytometry on a FACSCalibur (BD Biosciences). HuMab-KLH was used as a negative control. Mouse anti-TF followed by PE-conjugated anti-mouse IgGFc was used as positive control. Binding curves were analyzed using non-linear regression (sigmoidal dose-response with variable slope) using GraphPad Prism V4.03 software (GraphPad Software, San Diego, Calif., USA).

[2] = biological target: T2, TFECDHis (extracellular domain of tissue factor, amino acid 1-251, with C-terminal His tag) (human, UniProt P13726 33-251); assay: SPR avidity format: TFECDHis immobilized, bivalent HuMab as analyte (printed as avidity nM)
T2 construct: range 1-251; The stated range 1-251 starts at residue 1 of NP-001984; also called extracellular domain of TF
Description: (§2) Antibody binding to TF was analyzed by surface plasmon resonance in a BIAcore 3000 (GE Healthcare). TFECDHis was used for the analysis. HuMab antibodies (500 resonance units) were immobilized on the CM-5 sensor chip according to the procedure recommended by the manufacturer. Briefly, after surface activation by EDC and NHS HuMab antibody was injected over the activated CM-5 surface in 10 mM sodium-acetate, pH ranging from 4.0 to 5.5 at 5 μl/min. followed by 1 M Ethanolamine for deactivation. Concentration series of TFECDHis in HBS-EP buffer were injected over the immobilized antibodies at a flow rate of 30 μl/min for 180 sec. Regeneration of the HuMab surface was performed by injection of 10 mM Glycine-HCl pH 2.0 or 10 mM sodium acetate pH 3.0. Kinetic analysis was performed using double reference subtraction and model 1:1 (langmuir) binding analysis.
TF (TFECDHis) binding to TF-specific HuMabs was determined essentially as described above, with TFECDHis being immobilized on the CM-5 sensor chip (300 resonance units), and concentration series of Humab antibodies used for kinetic analysis. Kinetic analysis was performed using double reference subtraction and model 1:1 (langmuir) binding analysis.

[3] = biological target: T1, human tissue factor (TF), …; assay: FACS, MDA-MB-231 cells, 30 µg/mL
Description: as §1

[4] = biological target: T1, human tissue factor (TF), …; assay: FACS on MDA-MB-231 cells (~900.000 TF molecules/cell) [panel MDA-MB-231 cells]
Description: as §1
Binding of anti-TF HuMabs to membrane-bound TF on cell lines expressing different levels of TF was determined by FACS analysis, essentially as described supra. Mouse anti-TF antibody followed by PE-conjugated anti-mouse IgGFc was used as a positive control. Fluorescence was measured on a FACSCantoII. Binding curves were analyzed essentially as described supra, using GraphPad Prism 5 software. The amount of TF molecules on cell lines was determined by Qifi kit (Dako, Glostrup, Denmark), according to the manufacturer's instructions.

[5] = biological target: T1, human tissue factor (TF), …; assay: FACS, Bx-PC3 cells
Description: as §1

[6] = biological target: T1, human tissue factor (TF), …; assay: FACS, A431 cells
Description: as §1

[7] = biological target: T1, human tissue factor (TF), …; assay: FACS, TF transfected CHO cells (S1015-TF)
Description: as §1

[8] = biological target: T1, human tissue factor (TF), …; assay: cell-based or functional assay
[9] = biological target: T2, TFECDHis (extracellular domain of …); assay: competition ELISA, inhibition of FVIIa (100 nM) binding to coated TFECDHis
Description: ELISA plates were coated overnight with TFECDHis (0.5 μg/mL, 100 μL per well). Plates were emptied, blocked with PBS containing 2% (v/v) chicken serum (1 hour, RT), and emptied again. […] Plates were washed and incubated with swine-anti-rabbit IgG-HRP antibody (1:2,500; DAKO). After washing, the immune complexes were visualized using ABTS as a substrate.

[10] = biological target: T1, human tissue factor (TF), …; assay: cell-based or functional assay; remark: listed apart in the source
[11] = biological target: T3, murine tissue factor (TF) on transfected HEK293F cells (murine, UniProt P20352 29-294); assay: FACS on transfected HEK293F cells, 30 µg/mL antibody [panel K]
T3 construct: whole, on cells; also called murine TF; TFmm
T3 sequence (looked up): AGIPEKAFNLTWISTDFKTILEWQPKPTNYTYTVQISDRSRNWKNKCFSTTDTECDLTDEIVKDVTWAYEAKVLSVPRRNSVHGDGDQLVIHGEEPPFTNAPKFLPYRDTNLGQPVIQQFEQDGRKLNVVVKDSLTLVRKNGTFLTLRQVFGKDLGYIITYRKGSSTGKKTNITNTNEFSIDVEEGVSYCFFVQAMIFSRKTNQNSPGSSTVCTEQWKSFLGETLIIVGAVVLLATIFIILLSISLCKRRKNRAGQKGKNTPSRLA

TF (Innovin) [12] = biological target: T4, TF (Innovin) (UniProt P13726 33-295, limits assumed); assay: cell-based or functional assay
[13] = biological target: T1, human tissue factor (TF), …; assay: FACS, TF transfected CHO cells (S1015-TF), 7.5 µg/mL
Description: as §1

[14] = biological target: T1, human tissue factor (TF), …; assay: FACS, MDA-MB-231 cells
Description: as §1

[15] = biological target: T1, human tissue factor (TF), …; assay: cell-based or functional assay; remark: listed apart in the source
[16] = biological target: T1, human tissue factor (TF), …; assay: FACS, A431 cells, 30 µg/mL
Description: as §1

[17] = biological target: T3, murine tissue factor (TF) on …; assay: FACS on transfected HEK293F cells, 30 µg/mL antibody [panel A]
TF (Innovin) [18] = biological target: T4, TF (Innovin); assay: cell-based or functional assay; remark: listed apart in the source
[19] = biological target: T2, TFECDHis (extracellular domain of …); assay: ELISA, coated TFECDHis, mean of 3
Description: The specificity of the obtained anti-TF HuMabs was evaluated by ELISA. ELISA plates (Microlon; Greiner Bio-One) were coated overnight at +4° C. with 0.5 μg/mL of TFECDHis in PBS, pH 7.4. Coated ELISA plates were emptied and blocked for one hour at room temperature with 2% (v/v) chicken serum (Gibco, Paisley, Scotland) in PBS and washed with PBS containing 0.05% Tween 20 (PBST). Subsequently, HuMabs, serially diluted in PBSTC (PBS supplemented with 2% (v/v) chicken serum and 0.05% (v/v) Tween-20), were incubated for 1 hr at RT under shaking conditions (300 rpm). Bound HuMabs were detected using HRP-conjugated goat-anti-human IgG antibodies (Jackson ImmunoResearch) diluted 1:5,000 in PBSTC, which were incubated for 1 hr at RT under shaking conditions (300 rpm). […] HuMab-KLH (a human monoclonal antibody against KLH (keyhole limpet haemocyanin)), was used as a negative control. Mouse anti-human TF (ERL) was used as positive control (HRP labeled anti-mouse IgG as conjugate). Binding curves were analyzed using non-linear regression (sigmoidal dose-response with variable slope) using GraphPad Prism V4.03 software.

[20] = biological target: T2, TFECDHis (extracellular domain of …); assay: SPR BIAcore 3000, HuMab immobilized, TFECDHis analyte
Description: as §2

[21] = biological target: T3, murine tissue factor (TF) on …; assay: FACS on transfected HEK293F cells, 30 µg/mL antibody [panel L]

Row | Binder | Max MFI [1] | Max MFI [3] | EC50 [5] | EC50 [6] | EC50 [7] | % max inhibition of FVIIa induced ERK phosphorylation (A431) [8] | IC50, inhibition of FVIIa induced ERK phosphorylation (A431) [8] | IC50 [9] | max inhibition [9] | IC50, inhibition of FVIIa induced IL-8 release (MDA-MB-231) [10] | max inhibition of FVIIa induced IL-8 release (MDA-MB-231) [10] | % max inhibition of FXa generation (TF (Innovin) [12]) | IC50, inhibition of FXa generation (TF (Innovin) [12]) | Max MFI [13] | EC50 [14] | EC50 of ADCC, A431 cells [15] | EC50 of ADCC, Bx-PC3 cells [15] | EC50 of ADCC, MDA-MB-231 cells [15] | Max MFI [16] | IC50, inhibition of blood coagulation (TF induced clotting time) (TF (Innovin) [18]) | also measured
1 | B1 | 1150 | 1960 | 1.38 nM | 1.4 nM | 0.96 nM | 64% | 1.89 nM | 0.8 nM | 85% | 9.3 nM | 59% | 14% | 0.43 nM | 5230 | 0.99 nM | 0.07 nM | 0.02 nM | 0.15 nM | 2760 | – | Kd [2]: 4.85 nM; EC50 (read off the curve) [4]: ~0.05 µg/mL; binding result [11]: no binding (tested: 30 µg/mL)
2 | B2 | 1110 | 1800 | 4.98 nM | 6.94 nM | 2.06 nM | 63% | 7.99 nM | 1.9 nM | 89% | 23.7 nM | 76.2% | 21% | 0.07 nM | 4250 | 3.2 nM | – | 0.17 nM | 0.29 nM | 2530 | 7.3 nM | binding result [17]: binds; EC50 [19]: 0.46 nM; Kd [20]: 4.51 nM
3 | B3 | 1220 | 2070 | 2.25 nM | 3.16 nM | 1.77 nM | 57% | 1.05 nM | – | – | 22.7 nM | 74.9% | – | – | 5860 | 0.85 nM | 0.01 nM | 0.09 nM | 0.1 nM | 2930 | 0.7 nM | binding result [21]: no binding (tested: 30 µg/mL); EC50 [19]: 0.28 nM
